Data on 2 molecules can be found in paper PMC10460389, “Design of 8-mer peptides that block Clostridioides difficile toxin A in intestinal cells” (Communications Biology, 2023).

This test deals with T1, Clostridioides difficile Toxin A labelled with Alexa Fluor 594 (Clostridioides difficile, UniProt P16154 1-2710).
T1 construct: also called TcdA-AF594; red fluorescently labeled TcdA
Nature of the test: bead-based fluorescence imaging. The note with it: both partners purified.

Ends that are not written are not given here.

T1 sequence (P16154 whole entry, looked up): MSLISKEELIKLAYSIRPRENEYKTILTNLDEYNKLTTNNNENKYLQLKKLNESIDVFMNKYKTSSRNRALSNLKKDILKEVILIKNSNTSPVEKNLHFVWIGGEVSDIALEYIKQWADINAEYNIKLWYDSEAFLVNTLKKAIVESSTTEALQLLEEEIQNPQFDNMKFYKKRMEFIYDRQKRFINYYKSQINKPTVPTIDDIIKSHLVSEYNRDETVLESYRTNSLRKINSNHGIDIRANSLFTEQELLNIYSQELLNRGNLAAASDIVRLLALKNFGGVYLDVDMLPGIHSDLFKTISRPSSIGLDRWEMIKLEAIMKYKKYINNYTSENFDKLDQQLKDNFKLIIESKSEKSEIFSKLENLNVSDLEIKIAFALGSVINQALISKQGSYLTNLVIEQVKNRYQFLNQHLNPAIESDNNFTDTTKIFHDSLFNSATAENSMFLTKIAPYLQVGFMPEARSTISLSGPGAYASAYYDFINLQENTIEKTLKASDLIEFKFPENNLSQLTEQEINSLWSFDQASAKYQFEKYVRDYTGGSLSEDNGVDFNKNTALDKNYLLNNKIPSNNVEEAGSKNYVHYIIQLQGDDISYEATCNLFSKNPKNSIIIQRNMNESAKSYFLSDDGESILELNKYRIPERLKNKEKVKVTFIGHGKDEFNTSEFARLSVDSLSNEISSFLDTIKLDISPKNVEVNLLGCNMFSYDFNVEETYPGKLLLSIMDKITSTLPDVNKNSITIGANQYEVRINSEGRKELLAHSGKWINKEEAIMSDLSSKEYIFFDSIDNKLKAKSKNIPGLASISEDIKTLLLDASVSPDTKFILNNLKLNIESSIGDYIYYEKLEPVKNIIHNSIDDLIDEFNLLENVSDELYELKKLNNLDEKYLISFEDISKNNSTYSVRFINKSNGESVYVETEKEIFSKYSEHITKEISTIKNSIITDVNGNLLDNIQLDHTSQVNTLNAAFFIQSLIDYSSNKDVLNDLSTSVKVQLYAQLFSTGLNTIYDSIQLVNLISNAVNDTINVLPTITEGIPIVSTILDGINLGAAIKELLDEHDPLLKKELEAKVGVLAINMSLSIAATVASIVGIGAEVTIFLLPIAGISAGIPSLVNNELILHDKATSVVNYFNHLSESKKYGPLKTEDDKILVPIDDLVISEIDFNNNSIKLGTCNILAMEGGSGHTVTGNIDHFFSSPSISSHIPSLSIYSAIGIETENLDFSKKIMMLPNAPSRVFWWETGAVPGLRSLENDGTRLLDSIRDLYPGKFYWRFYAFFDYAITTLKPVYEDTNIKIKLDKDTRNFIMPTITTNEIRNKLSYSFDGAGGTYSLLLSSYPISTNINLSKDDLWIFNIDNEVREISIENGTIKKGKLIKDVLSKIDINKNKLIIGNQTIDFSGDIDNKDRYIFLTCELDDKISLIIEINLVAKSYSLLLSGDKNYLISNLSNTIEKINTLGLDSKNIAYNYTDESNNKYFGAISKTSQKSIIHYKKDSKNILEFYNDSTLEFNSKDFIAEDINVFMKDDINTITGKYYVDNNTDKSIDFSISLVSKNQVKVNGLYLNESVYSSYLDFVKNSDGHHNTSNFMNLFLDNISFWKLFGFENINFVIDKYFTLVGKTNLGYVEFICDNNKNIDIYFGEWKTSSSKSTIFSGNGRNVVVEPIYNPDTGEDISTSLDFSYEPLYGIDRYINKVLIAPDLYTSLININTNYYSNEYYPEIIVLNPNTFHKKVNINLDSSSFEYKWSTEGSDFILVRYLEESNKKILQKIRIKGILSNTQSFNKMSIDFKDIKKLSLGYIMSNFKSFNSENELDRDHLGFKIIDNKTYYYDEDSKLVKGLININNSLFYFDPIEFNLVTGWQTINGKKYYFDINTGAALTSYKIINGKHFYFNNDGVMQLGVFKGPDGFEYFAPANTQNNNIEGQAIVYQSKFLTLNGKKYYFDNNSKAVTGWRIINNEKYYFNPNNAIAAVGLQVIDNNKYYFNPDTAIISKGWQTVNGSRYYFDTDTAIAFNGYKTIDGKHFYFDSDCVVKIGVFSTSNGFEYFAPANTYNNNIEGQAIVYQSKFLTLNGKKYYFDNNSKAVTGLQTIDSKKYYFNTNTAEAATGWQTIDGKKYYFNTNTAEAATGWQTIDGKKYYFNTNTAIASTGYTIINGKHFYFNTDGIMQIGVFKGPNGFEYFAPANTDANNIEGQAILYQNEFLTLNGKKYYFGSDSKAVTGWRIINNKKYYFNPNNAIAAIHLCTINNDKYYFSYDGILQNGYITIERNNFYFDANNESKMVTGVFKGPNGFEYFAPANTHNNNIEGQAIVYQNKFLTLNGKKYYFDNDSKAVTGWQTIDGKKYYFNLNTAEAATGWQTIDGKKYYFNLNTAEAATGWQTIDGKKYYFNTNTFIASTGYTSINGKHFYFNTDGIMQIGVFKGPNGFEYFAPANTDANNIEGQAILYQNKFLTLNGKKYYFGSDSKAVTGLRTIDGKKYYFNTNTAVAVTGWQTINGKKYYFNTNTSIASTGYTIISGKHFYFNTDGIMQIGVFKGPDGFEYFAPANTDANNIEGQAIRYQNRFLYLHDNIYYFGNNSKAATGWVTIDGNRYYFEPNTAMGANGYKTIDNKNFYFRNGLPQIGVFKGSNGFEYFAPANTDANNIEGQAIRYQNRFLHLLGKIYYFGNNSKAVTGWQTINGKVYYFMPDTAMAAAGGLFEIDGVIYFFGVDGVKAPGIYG

B1: SA4 on ChemMatrix Aminomethyl bead (GSG linker) (peptide)
peptide: MFWEHRHRGSG
modifications: also: on ChemMatrix Aminomethyl bead via GSG linker
As for B1, the binding result is “binds”.

B2: SA2 on ChemMatrix Aminomethyl bead (GSG linker) (peptide)
peptide: QDWMRRHWGSG
modifications: also: on ChemMatrix Aminomethyl bead via GSG linker
In the case of B2, the binding result is listed as “binds”.
